Drawing on the Human Domainome abundance scans (Beltran et al. 2025), this text covers abundance fitness for 61 substances.

± gives the uncertainty stated by the source.

A short description of this data set: abundance fitness (aPCA) (normalised: wild type 0, dead -1); higher = more abundant; growth selection in yeast, the domain comes from the species named. The note with it: Homo sapiens.
Turning to “E3 ubiquitin-protein ligase NEDD4-like L226Y, Q96PU5”, the abundance fitness was -0.043 ± 0.091. The figure for “E3 ubiquitin-protein ligase NEDD4-like M227A, Q96PU5” is -0.077 ± 0.064; for “E3 ubiquitin-protein ligase NEDD4-like M227C, Q96PU5” it is -0.05 ± 0.059. “E3 ubiquitin-protein ligase NEDD4-like M227D, Q96PU5” had an abundance fitness of 0.065 ± 0.12. The substance “E3 ubiquitin-protein ligase NEDD4-like M227G, Q96PU5” displayed an abundance fitness of -0.039 ± 0.064.

“E3 ubiquitin-protein ligase NEDD4-like M227H, Q96PU5” showed an abundance fitness of 0.092 ± 0.077. In turn, “E3 ubiquitin-protein ligase NEDD4-like M227I, Q96PU5” showed an abundance fitness of -0.135 ± 0.073. With “E3 ubiquitin-protein ligase NEDD4-like M227K, Q96PU5”, the abundance fitness is -0.015 ± 0.093.

For the substance “E3 ubiquitin-protein ligase NEDD4-like M227L, Q96PU5”, the abundance fitness was -0.027 ± 0.067. To “E3 ubiquitin-protein ligase NEDD4-like M227N, Q96PU5” belongs -0.024 ± 0.099; to “E3 ubiquitin-protein ligase NEDD4-like M227P, Q96PU5”, 0.145 ± 0.09; to “E3 ubiquitin-protein ligase NEDD4-like M227Q, Q96PU5”, -0.068 ± 0.1. The figure for “E3 ubiquitin-protein ligase NEDD4-like M227R, Q96PU5” is 0.001 ± 0.054.

Regarding “E3 ubiquitin-protein ligase NEDD4-like M227S, Q96PU5”, the abundance fitness turned out to be 0.055 ± 0.063.

Turning to “E3 ubiquitin-protein ligase NEDD4-like M227T, Q96PU5”, the abundance fitness was -0.022 ± 0.089. The figure for “E3 ubiquitin-protein ligase NEDD4-like M227V, Q96PU5” is -0.285 ± 0.068; for “E3 ubiquitin-protein ligase NEDD4-like M227W, Q96PU5” it is -0.313 ± 0.07; for “E3 ubiquitin-protein ligase NEDD4-like M227Y, Q96PU5” it is -0.184 ± 0.082. To “E3 ubiquitin-protein ligase NEDD4-like N205A, Q96PU5” belongs -0.057 ± 0.06.

For the substance “E3 ubiquitin-protein ligase NEDD4-like N205C, Q96PU5”, the abundance fitness is -0.142 ± 0.059. The figure for “E3 ubiquitin-protein ligase NEDD4-like N205D, Q96PU5” is -0.085 ± 0.07. The figure for “E3 ubiquitin-protein ligase NEDD4-like N205E, Q96PU5” is -0.105 ± 0.05; for “E3 ubiquitin-protein ligase NEDD4-like N205F, Q96PU5” it is -0.544 ± 0.11; for “E3 ubiquitin-protein ligase NEDD4-like N205G, Q96PU5” it is -0.321 ± 0.054. As to “E3 ubiquitin-protein ligase NEDD4-like N205H, Q96PU5”, the abundance fitness is -0.062 ± 0.11. To “E3 ubiquitin-protein ligase NEDD4-like N205I, Q96PU5” belongs -0.111 ± 0.098; to “E3 ubiquitin-protein ligase NEDD4-like N205K, Q96PU5”, 0.033 ± 0.097; to “E3 ubiquitin-protein ligase NEDD4-like N205L, Q96PU5”, -0.196 ± 0.07. As for “E3 ubiquitin-protein ligase NEDD4-like N205M, Q96PU5”, the abundance fitness is -0.109 ± 0.055. To “E3 ubiquitin-protein ligase NEDD4-like N205P, Q96PU5” belongs -0.012 ± 0.093. Substance “E3 ubiquitin-protein ligase NEDD4-like N205Q, Q96PU5” gave an abundance fitness of -0.087 ± 0.069.

For the substance “E3 ubiquitin-protein ligase NEDD4-like N205R, Q96PU5”, the abundance fitness is -0.013 ± 0.054. The figure for “E3 ubiquitin-protein ligase NEDD4-like N205T, Q96PU5” is 0.029 ± 0.092; for “E3 ubiquitin-protein ligase NEDD4-like N205V, Q96PU5” it is -0.232 ± 0.068; for “E3 ubiquitin-protein ligase NEDD4-like N205Y, Q96PU5” it is 0.049 ± 0.094. For “E3 ubiquitin-protein ligase NEDD4-like N213A, Q96PU5”, the abundance fitness was -0.382 ± 0.071. To “E3 ubiquitin-protein ligase NEDD4-like N213C, Q96PU5” belongs -0.042 ± 0.14. The figure for “E3 ubiquitin-protein ligase NEDD4-like N213D, Q96PU5” is -0.206 ± 0.075; for “E3 ubiquitin-protein ligase NEDD4-like N213E, Q96PU5” it is -0.404 ± 0.11. The figure for “E3 ubiquitin-protein ligase NEDD4-like N213F, Q96PU5” is -0.507 ± 0.11; for “E3 ubiquitin-protein ligase NEDD4-like N213G, Q96PU5” it is -0.326 ± 0.084; for “E3 ubiquitin-protein ligase NEDD4-like N213K, Q96PU5” it is -0.752 ± 0.18. In the case of “E3 ubiquitin-protein ligase NEDD4-like N213L, Q96PU5”, the abundance fitness was -0.709 ± 0.1. The figure for “E3 ubiquitin-protein ligase NEDD4-like N213M, Q96PU5” is -0.441 ± 0.11; for “E3 ubiquitin-protein ligase NEDD4-like N213P, Q96PU5” it is -0.383 ± 0.24. To “E3 ubiquitin-protein ligase NEDD4-like N213Q, Q96PU5” belongs -0.295 ± 0.089; to “E3 ubiquitin-protein ligase NEDD4-like N213R, Q96PU5”, -0.56 ± 0.069.

Substance “E3 ubiquitin-protein ligase NEDD4-like N213S, Q96PU5” gave an abundance fitness of 0.213 ± 0.12. To “E3 ubiquitin-protein ligase NEDD4-like N213T, Q96PU5” belongs -0.428 ± 0.1; to “E3 ubiquitin-protein ligase NEDD4-like N213V, Q96PU5”, -0.88 ± 0.13; to “E3 ubiquitin-protein ligase NEDD4-like N213W, Q96PU5”, -0.753 ± 0.1. For “E3 ubiquitin-protein ligase NEDD4-like N213Y, Q96PU5”, the abundance fitness is -0.349 ± 0.39. The figure for “E3 ubiquitin-protein ligase NEDD4-like N215A, Q96PU5” is -0.029 ± 0.072.

Regarding “E3 ubiquitin-protein ligase NEDD4-like N215C, Q96PU5”, the abundance fitness was -0.178 ± 0.084. “E3 ubiquitin-protein ligase NEDD4-like N215D, Q96PU5” returned an abundance fitness of 0.015 ± 0.086. The figure for “E3 ubiquitin-protein ligase NEDD4-like N215E, Q96PU5” is -0.086 ± 0.077; for “E3 ubiquitin-protein ligase NEDD4-like N215F, Q96PU5” it is -0.169 ± 0.1.

For “E3 ubiquitin-protein ligase NEDD4-like N215G, Q96PU5”, the abundance fitness is -0.036 ± 0.05. To “E3 ubiquitin-protein ligase NEDD4-like N215H, Q96PU5” belongs -0.031 ± 0.1.

In the case of “E3 ubiquitin-protein ligase NEDD4-like N215I, Q96PU5”, the abundance fitness was -0.077 ± 0.084.

In the case of “E3 ubiquitin-protein ligase NEDD4-like N215K, Q96PU5”, the abundance fitness was 0.165 ± 0.098.
